Results: PMC5385526 (Scientific Reports, 2017)

B1: human aminopeptidase N (hAPN) ectodomain, soluble (domain or fragment, UniProt P15144 36-967, looked up)
chain: EKNKNANSSPVASTTPSASATTNPASATTLDQSKAWNRYRLPNTLKPDSYRVTLRPYLTPNDRGLYVFKGSSTVRFTCKEATDVIIIHSKKLNYTLSQGHRVVLRGVGGSQPPDIDKTELVEPTEYLVVHLKGSLVKDSQYEMDSEFEGELADDLAGFYRSEYMEGNVRKVVATTQMQAADARKSFPCFDEPAMKAEFNITLIHPKDLTALSNMLPKGPSTPLPEDPNWNVTEFHTTPKMSTYLLAFIVSEFDYVEKQASNGVLIRIWARPSAIAAGHGDYALNVTGPILNFFAGHYDTPYPLPKSDQIGLPDFNAGAMENWGLVTYRENSLLFDPLSSSSSNKERVVTVIAHELAHQWFGNLVTIEWWNDLWLNEGFASYVEYLGADYAEPTWNLKDLMVLNDVYRVMAVDALASSHPLSTPASEINTPAQISELFDAISYSKGASVLRMLSSFLSEDVFKQGLASYLHTFAYQNTIYLNLWDHLQEAVNNRSIQLPTTVRDIMNRWTLQMGFPVITVDTSTGTLSQEHFLLDPDSNVTRPSEFNYVWIVPITSIRDGRQQQDYWLIDVRAQNDLFSTSGNEWVLLNLNVTGYYRVNYDEENWRKIQTQLQRDHSAIPVINRAQIINDAFNLASAHKVPVTLALNNTLFLIEERQYMPWEAALSSLSYFKLMFDRSEVYGPMKNYLKKQVTPLFIHFRNNTNNWREIPENLMDQYSEVNAISTACSNGVPECEEMVSGLFKQWMENPNNNPIHPNLRSTVYCNAIAQGGEEEWDFAWEQFRNATLVNEADKLRAALACSKELWILNRYLSYTLNPDLIRKQDATSTIISITNNVIGQGLVWDFVQSNWKKLFNDYGGGSFSFSNLIQAVTRRFSTEYELQQLEQFKKDNEETGFGSGTRALEQALEKTKANIKWVKENKEVVLQWFTENSK

What was measured:
[1] = molecular target: porcine aminopeptidase N (pAPN) ectodomain, soluble (pig) (UniProt P15145); assay: crystal structure; HA-tagged APN ectodomains; pAPNeh: 5% PEG-1000, 10% PEG-8000 (pH ~6); native pAPN: 20% PEG-3350, 100 mM sodium acetate pH 5.6; hAPN: 20% PEG-6000, 50 mM imidazole-HCl pH 8.0; dimer in the crystals
[2] = molecular target: seleno-Met, endoglycosidase H-treated porcine APN ectodomain (pig) (UniProt P15145); assay: as above
[3] = molecular target: TGEV RBD-Fc fusion protein (bivalent RBD-Fc variant); assay: flow cytometry on cells; details: 293T cell surface, normalized to cell surface expression, read off a plot
[4] = molecular target: the molecule itself; assay: crystal structure; HA-tagged APN ectodomains; pAPNeh: 5% PEG-1000, 10% PEG-8000 (pH ~6); native pAPN: 20% PEG-3350, 100 mM sodium acetate pH 5.6; hAPN: 20% PEG-6000, 50 mM imidazole-HCl pH 8.0; dimer in the crystals
[5] = + DTT (5 mM; 30 min, 37 °C) before assay, parent: est. 110

Molecule	percent of parent [3, 5] [%]	percent of parent ([3]; - DTT, parent: est. 100) [%]	other results
porcine aminopeptidase N (pAPN) ectodomain, soluble (from UniProt P15145 36-963) (domain or fragment)			stoichiometry N [1]: 2
seleno-Met, endoglycosidase H-treated porcine APN ectodomain (from UniProt P15145 36-963) (domain or fragment)			stoichiometry N [2]: 2
wild type porcine APN on the surface of transiently transfected 293T cells (from UniProt P15145) S464C; S892C	120	45	
wild type porcine APN on the surface of transiently transfected 293T cells (from UniProt P15145) S464C; S892C; S929C	76	37	
wild type porcine APN on the surface of transiently transfected 293T cells (from UniProt P15145) S464C; S929C	110	19	
B1			stoichiometry N [4]: 2
